In US20260373262 (published 2026):

Molecular target: T1, EPHB6 (human, UniProt O15197)
T1 chain: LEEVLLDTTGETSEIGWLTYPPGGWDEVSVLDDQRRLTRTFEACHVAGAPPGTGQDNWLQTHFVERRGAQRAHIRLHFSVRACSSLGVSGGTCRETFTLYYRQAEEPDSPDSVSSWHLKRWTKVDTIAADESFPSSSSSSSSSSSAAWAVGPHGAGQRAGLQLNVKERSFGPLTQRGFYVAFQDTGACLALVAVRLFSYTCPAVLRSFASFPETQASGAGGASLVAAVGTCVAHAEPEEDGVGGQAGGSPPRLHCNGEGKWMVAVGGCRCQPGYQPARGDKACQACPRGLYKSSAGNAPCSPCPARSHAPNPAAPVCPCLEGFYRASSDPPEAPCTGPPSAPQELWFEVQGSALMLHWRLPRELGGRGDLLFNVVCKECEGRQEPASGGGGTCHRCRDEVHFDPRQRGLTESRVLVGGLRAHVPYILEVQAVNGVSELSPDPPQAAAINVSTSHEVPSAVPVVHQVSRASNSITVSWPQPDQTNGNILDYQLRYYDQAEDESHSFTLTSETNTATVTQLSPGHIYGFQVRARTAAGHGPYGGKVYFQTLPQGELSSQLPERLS
Experiment: FACS

EC50: > 300 µg/mL
B1: hLFTT-1 VH4/VL5 (antibody, V domains shown)
VH: QIQLVQSGSELKKPGASVKVSCKASGYTFTTYGMSWVRQAPGQGLKWMGWIYTYSGVPTYADDLTGRFVFSLDTSVSTAYLQISSLKAEDTATYYCARVRDGYYRYAMDYWGRGTLVTVSS
VL: DIQMTQSPSSLSVSVGDRVTITCKASQDINRYIAWYQQQPGKAPKLLIHFTSTLQSGVPSRFSGSGSGTDFTFTISSLQPEDIATYYCLQYDDLRTFGQGTKLEIK
